Here are results for one molecule from patent US20070286858A1 (Pfizer, published 2007).

The target of one assay is T1, cynomolgus monkey RAGE (cynomolgus monkey (Macaca fascicularis), UniProt Q15109 23-404 (human entry)).
T1 construct: On transfected 293 cells or endogenous in monkey lung sections; also called 293-cyno monkey RAGE; RAGE in monkey lung
T1 chain: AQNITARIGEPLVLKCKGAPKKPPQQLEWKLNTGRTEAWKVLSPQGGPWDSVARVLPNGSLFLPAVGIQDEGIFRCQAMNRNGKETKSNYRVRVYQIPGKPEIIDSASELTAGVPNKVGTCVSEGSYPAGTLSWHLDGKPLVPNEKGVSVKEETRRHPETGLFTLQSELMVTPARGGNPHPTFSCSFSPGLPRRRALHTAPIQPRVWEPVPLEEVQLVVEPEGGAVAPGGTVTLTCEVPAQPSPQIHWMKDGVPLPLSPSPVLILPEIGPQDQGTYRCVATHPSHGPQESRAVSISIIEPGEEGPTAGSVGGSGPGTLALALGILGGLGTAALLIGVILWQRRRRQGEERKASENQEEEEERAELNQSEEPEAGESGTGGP
Kind of assay: cell-based ELISA, 293 cells transfected with cynomolgus monkey RAGE. The procedure: Human embryonic kidney 293 cells (American Tissue Type Culture, Manassas, Va.) cells were plated at 5×10⁶ cells per 10 cm² tissue culture plate and cultured overnight at 37° C. The next day cells were transfected with RAGE expression plasmids (pAdori1-3 vector encoding mouse, human, baboon, cynomologus monkey or rabbit RAGE) using LF2000 reagent (Invitrogen, Carlsbad Calif.) at a 4:1 ratio of reagent to plasmid DNA using the manufacturers protocol. Cells were harvested 48 hrs post-transfection using trypsin, washed once with phosphate buffered saline (PBS), then suspended in growth media without serum at a concentration of 2×10⁶ cells/ml.
Primary antibodies at 1 μg/ml were serially diluted at 1:2 or 1:3 in PBS containing 1% bovine serum albumin (BSA) in a 96-well plate. RAGE-transfected 293 cells or control parental 293 cells (50 μl) at 2×10⁶ cells/ml in serum-free growth medium were added to U-bottom 96 well plate for a final concentration of 1×10⁵ cells/well. The cells were centrifuged at 1600 rpm for 2 minutes. The supernatants were gently discarded by hand with a one-time swing and the plate was patted gently to loose the cell pellet. […] The cells were centrifuged and the supernatants are transferred to a fresh plate and read at 450 nm (Soft MAX pro 4.0, Molecular Devices Corporation, Sunnyvale, Calif.).
A general note: In an ELISA, binding on a coated surface is turned into a signal by an enzyme label.

The target of assay [1] is T2, human RAGE-Fc fusion protein (human, UniProt Q15109 23-344).
T2 construct: also called hRAGE-Fc; huRAGE-Fc; not shown: Fc domain of human IgG
In words: direct binding ELISA, coated hRAGE-Fc. On the procedure:
Antibodies were purified from hybridoma supernatants using standard procedures. Purified antibodies were evaluated for binding to soluble forms of RAGE with the use of ELISA. […] After washing and blocking with PBS containing 1% BSA and 0.05% Tween-20, 100 ul of sample (samples were in several forms: diluted immune serum, hybridoma supernatants, or purified antibodies, as indicated) was added and incubated for 1 hour at room temperature. The plates were washed with PBS, pH 7.2 and bound anti-RAGE antibodies were detected with the use of peroxidase-conjugated goat, anti-mouse IgG (H+L) (IgG) (Pierce, Rockford, Ill.) followed by incubation with the substrate TMB (BioFX Laboratories Owings Mills, Md. Laboratories). Absorbance values were determined at 450 nm in a spectrophotometer. The concentrations of monoclonal antibodies were determined with the use of peroxidase-labeled goat, anti-mouse IgG (Fcγ) (Pierce Rockford, Ill.) and a standard curve was generated by a purified, isotype-matched mouse IgG.

The target of assay [2] is T2, human RAGE-Fc fusion protein. Kind of assay: antibody competition ELISA on hRAGE-Fc; competitor biotinylated XT-M4.
Assay [3] has the same target. In words: ligand competition ELISA, panel Blocks hRAGE-Fc interaction with S100-A; blocked ligand S100-A.
Assay [4] shares this target. In words: ligand competition ELISA, panel Blocks hRAGE-Fc interaction with S100-B; blocked ligand S100-B.
Assay [5] deals with T3, murine RAGE-strep tag fusion protein (mouse, UniProt Q62151 23-343).
T3 construct: also called mRAGE-strep; mRAGE-SA
T3 chain: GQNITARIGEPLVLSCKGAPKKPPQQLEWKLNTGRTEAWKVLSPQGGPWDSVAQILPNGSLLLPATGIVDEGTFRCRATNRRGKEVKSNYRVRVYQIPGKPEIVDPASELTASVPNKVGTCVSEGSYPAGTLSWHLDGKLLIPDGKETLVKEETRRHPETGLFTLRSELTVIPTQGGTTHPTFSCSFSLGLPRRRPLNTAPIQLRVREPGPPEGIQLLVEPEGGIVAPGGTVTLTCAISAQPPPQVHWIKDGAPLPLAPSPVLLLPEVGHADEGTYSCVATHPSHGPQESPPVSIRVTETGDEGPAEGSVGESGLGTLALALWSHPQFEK
In words: ELISA, mRAGE-strep.

Assay [6] deals with T4, soluble human streptavidin-tagged RAGE (human, UniProt Q15109 23-344).
T4 construct: also called hRAGE-SA; human RAGE-strep
Kind of assay: BIACORE capture assay, antibody on CM5 chip, hRAGE-SA 0-100 nM in solution. The procedure: The assays were performed by coating antibodies onto a CM5 BIA chip with 5000-7000 RU.
In general terms: In SPR one partner is held on a chip, and binding of the other changes the refractive index at the surface.

B1: XT-M4 (antibody, rat IgG2b, V domains shown)
VH: EVQLVESGGGLVQPGRSLKLSCVVSGFTFNNYWMTWIRQTPGKGLEWVASINNSGDNTYYPDSVKDRFTISRDNAKSTLYLQMNSLRSEDTATYYCTRGGDITTGFDYWGQGVMVTVSS
VL: DIQMTQSPSSMSVSLGDTITITCRASQDVGIYVNWFQQKPGKSPRRMIYRATNLADGVPSRFSGSRSGSIYSLTISSLESEDVADYHCLEFDEHPLTFGSGTKVEIK
notes: also called 1mRAGEP3/10; rat XT-M4
For orientation: EC50 means the concentration needed to bring the measured effect to its halfway point. As a reminder, the Kd is the free concentration of one partner at which half of the binding sites on the other are occupied at equilibrium, for simple one-to-one binding. Broadly, the koff is the first-order rate constant of dissociation. Usually kon stands for the rate constant with which the complex forms. Consider B1, for which, in the assay with cynomolgus monkey RAGE, the concentration giving a half-maximal response (EC50) is approximately 2.33 nM. In assay [1], this molecule showed a concentration for a half-maximal effect (EC50) of 0.3 nM. Further, in assay [2], the “IC50 (read off the curve)” value was approximately 0.4 µg/mL. Moreover, the “IC50 (read off the curve)” value in assay [3] is approximately 0.07 µg/mL. In addition, the “IC50 (read off the curve)” value in assay [4] is approximately 0.1 µg/mL. In addition, the binding result in assay [5] was “binds”. In assay [6], the Ka was found to be 2.03e+08 M⁻¹; the affinity, expressed as Kd, was 4.92 nM; the koff turned out to be 0.0186 s⁻¹; the on-rate constant (kon) is 3.78e+06 M⁻¹ s⁻¹.
